Test results reported in patent US20250136710A1.

Experiments:
[1] = target: human PVRIG expressed on cells (human) (UniProt Q6DKI7); experiment: FACS; Jurkat cells
[2] = target: human PVRIG expressed on cells (human) (UniProt Q6DKI7); experiment: FACS
[3] = target: mouse PVR protein, recombinant (mouse); experiment: SPR / ELISA with recombinant proteins

human PVRIG expressed on cells (human), sequence (Q6DKI7 41-326): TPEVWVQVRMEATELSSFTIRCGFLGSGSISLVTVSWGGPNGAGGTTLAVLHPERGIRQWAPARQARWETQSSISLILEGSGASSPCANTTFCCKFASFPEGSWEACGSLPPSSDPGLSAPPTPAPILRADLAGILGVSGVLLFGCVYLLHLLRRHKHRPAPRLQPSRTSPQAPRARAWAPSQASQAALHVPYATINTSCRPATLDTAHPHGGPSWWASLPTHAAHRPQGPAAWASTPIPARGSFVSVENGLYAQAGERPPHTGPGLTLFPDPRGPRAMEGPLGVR

Row | Substance | Kd [1] [nM] | Kd [2] [nM] | fold lower affinity than the interaction with mPVRL2 [3] [fold]
1 | PVRIG (COM701) | 0.15 | 0.298 | 
2 | mouse PVRIG Fc (Fc fusion) |  |  | 10
